According to paper PMC9359528, “DNA binding by the Rad9A subunit of the Rad9-Rad1-Hus1 complex”:

What was measured:
Experiment in all cases: EMSA; EMSA: 20 mM Tris-HCl pH 7.6, 80 mM NaCl, 1 mM DTT, 1 mM EDTA, 1.5% glycerol, 200 ng/ml poly dI/dC, 50 ug/ml BSA, 10 nM DNA; 6% native PAGE in 50 mM Tris-borate
LD Rad9A 94-266 = biological target: T1, LD Rad9A 94-266 (Homo sapiens, UniProt Q99638 94-266, del160-163); conditions: protein: recombinant; tags: His; label: 5'-fluorescein (6-carboxyfluorescein) on HC40; blunt
T1 sequence: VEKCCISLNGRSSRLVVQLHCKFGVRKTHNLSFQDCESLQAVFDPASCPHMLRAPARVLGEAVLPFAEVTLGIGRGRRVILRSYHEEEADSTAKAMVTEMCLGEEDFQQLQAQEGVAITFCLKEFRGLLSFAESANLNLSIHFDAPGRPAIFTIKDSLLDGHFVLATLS

WT Rad9A 1-133 = biological target: T2, WT Rad9A 1-133 (Homo sapiens, UniProt Q99638 1-133); conditions: protein: recombinant; tags: N-terminal His; label: 5'-fluorescein (6-carboxyfluorescein) on HC40; blunt
T2 sequence: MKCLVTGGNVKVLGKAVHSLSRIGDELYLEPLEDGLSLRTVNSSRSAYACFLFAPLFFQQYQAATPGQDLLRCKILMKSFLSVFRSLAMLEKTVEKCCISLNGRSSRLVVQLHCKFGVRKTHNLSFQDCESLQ

WT Rad9A 134-266 = biological target: T3, WT Rad9A 134-266 (Homo sapiens, UniProt Q99638 134-266); conditions: protein: recombinant; tags: N-terminal His; label: 5'-fluorescein (6-carboxyfluorescein) on HC40; blunt
T3 sequence: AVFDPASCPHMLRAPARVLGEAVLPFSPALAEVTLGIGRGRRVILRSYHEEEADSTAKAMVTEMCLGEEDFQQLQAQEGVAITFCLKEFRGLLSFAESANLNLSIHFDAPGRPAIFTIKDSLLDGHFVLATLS

TM Rad9A 1-133 = biological target: T4, TM Rad9A 1-133 (Homo sapiens, UniProt Q99638 1-133, K11A;K15A;R22A); conditions: protein: recombinant; tags: His; label: 5'-fluorescein (6-carboxyfluorescein) on HC40; blunt
T4 sequence: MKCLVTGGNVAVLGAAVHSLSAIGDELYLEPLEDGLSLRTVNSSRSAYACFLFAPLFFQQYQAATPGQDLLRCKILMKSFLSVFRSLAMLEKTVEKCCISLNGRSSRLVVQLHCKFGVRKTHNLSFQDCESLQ

QM1 Rad9A 1-266 = biological target: T5, QM1 Rad9A 1-266 (Homo sapiens, UniProt Q99638 1-266, K11A;K15A;R22A;K78A); conditions: protein: recombinant; tags: His; label: 5'-fluorescein (6-carboxyfluorescein) on HC40; blunt
T5 sequence: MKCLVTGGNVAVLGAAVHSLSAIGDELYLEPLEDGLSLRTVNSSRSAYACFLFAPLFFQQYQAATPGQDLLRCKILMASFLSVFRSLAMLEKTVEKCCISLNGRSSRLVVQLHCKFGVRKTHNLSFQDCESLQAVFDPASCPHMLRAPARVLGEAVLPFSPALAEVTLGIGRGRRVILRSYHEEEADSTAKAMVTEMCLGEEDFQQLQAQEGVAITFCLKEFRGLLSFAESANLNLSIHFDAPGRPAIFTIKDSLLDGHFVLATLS

WT Rad9A 94-266 = biological target: T6, WT Rad9A 94-266 (Homo sapiens, UniProt Q99638 94-266); conditions: protein: recombinant; tags: His; label: 5'-fluorescein (6-carboxyfluorescein) on HC40; blunt
T6 sequence: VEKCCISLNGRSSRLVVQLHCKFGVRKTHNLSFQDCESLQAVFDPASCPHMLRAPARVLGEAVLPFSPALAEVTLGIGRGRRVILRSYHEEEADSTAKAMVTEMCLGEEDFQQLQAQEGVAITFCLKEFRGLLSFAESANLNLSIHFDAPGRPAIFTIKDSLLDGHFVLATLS

TM Rad9A 1-266 = biological target: T7, TM Rad9A 1-266 (Homo sapiens, UniProt Q99638 1-266, K11A;K15A;R22A); conditions: protein: recombinant; tags: His; label: 5'-fluorescein (6-carboxyfluorescein) on HC40; blunt
T7 sequence: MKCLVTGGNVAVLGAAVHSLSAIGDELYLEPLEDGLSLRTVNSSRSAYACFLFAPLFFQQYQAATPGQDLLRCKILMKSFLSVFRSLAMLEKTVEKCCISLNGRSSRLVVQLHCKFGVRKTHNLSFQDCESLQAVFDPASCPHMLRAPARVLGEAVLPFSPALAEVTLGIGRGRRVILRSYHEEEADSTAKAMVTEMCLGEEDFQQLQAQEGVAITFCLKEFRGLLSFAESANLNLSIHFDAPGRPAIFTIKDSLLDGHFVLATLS

R223A Rad9A 94-266 = biological target: T8, R223A Rad9A 94-266 (Homo sapiens, UniProt Q99638 94-266, R223A); conditions: protein: recombinant; tags: His; label: 5'-fluorescein (6-carboxyfluorescein) on HC40; blunt
T8 sequence: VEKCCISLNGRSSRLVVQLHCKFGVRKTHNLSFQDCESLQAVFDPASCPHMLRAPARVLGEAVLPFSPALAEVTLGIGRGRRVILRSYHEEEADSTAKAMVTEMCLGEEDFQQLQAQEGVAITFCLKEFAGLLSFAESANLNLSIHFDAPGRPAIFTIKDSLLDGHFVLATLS

WT Rad9A 1-266 = biological target: T9, WT Rad9A 1-266 (Homo sapiens, UniProt Q99638 1-266); conditions: protein: recombinant; tags: N-terminal His; label: 5'-fluorescein (6-carboxyfluorescein) on HC40; blunt
T9 sequence: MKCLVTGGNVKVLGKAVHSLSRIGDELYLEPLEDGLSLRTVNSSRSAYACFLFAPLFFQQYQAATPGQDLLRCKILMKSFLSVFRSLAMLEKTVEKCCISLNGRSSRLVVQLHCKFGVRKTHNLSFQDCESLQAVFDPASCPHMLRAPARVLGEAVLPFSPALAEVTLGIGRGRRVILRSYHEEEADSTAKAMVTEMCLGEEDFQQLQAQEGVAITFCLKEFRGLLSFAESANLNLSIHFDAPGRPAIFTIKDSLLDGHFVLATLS

DM Rad9A 94-266 = biological target: T10, DM Rad9A 94-266 (Homo sapiens, UniProt Q99638 94-266, R150A;R223A); conditions: protein: recombinant; tags: His; label: 5'-fluorescein (6-carboxyfluorescein) on HC40; blunt
T10 sequence: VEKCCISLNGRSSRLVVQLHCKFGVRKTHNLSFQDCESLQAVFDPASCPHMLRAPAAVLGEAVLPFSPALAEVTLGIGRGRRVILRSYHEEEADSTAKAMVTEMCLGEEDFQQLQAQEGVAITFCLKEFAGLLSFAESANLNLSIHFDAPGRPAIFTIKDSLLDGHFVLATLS

K220A Rad9A 94-266 = biological target: T11, K220A Rad9A 94-266 (Homo sapiens, UniProt Q99638 94-266, K220A); conditions: protein: recombinant; tags: His; label: 5'-fluorescein (6-carboxyfluorescein) on HC40; blunt
T11 sequence: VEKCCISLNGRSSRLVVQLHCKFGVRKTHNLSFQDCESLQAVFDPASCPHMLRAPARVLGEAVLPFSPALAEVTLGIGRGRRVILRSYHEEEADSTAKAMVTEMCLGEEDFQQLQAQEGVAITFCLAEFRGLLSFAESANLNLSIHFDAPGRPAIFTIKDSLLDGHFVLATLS

B1: HC40/HG40 (dsDNA)
DNA 1: CCGAGGAATTCGCCTTCTGCTCCATAGCCACTGGTTGTAG
DNA 2: CTACAACCAGTGGCTATGGAGCAGAAGGCGAATTCCTCGG
- Kd (LD Rad9A 94-266): 6120 ± 1270 nM
- Kd (WT Rad9A 1-133): 820 ± 150 nM
- Kd (WT Rad9A 134-266): 3000 ± 620 nM
- Kd (TM Rad9A 1-133): 7740 ± 680 nM
- Kd (QM1 Rad9A 1-266): 1770 ± 790 nM
- Kd (WT Rad9A 94-266): 1500 ± 400 nM
- Kd (TM Rad9A 1-266): 120 ± 30 nM
- Kd (R223A Rad9A 94-266): 1170 ± 690 nM
- Kd (WT Rad9A 1-266): 50 ± 10 nM
- Kd (DM Rad9A 94-266): 7790 ± 880 nM
- Kd (K220A Rad9A 94-266): 6400 ± 750 nM
